Assay results as given in PMC11154737.

Target: Streptolysin O (SLO), wild type, full length (Streptococcus pyogenes) (UniProt P0DF96)
Assay: ELISA

Sequence of UniProt P0DF96 (P0DF96 34-571): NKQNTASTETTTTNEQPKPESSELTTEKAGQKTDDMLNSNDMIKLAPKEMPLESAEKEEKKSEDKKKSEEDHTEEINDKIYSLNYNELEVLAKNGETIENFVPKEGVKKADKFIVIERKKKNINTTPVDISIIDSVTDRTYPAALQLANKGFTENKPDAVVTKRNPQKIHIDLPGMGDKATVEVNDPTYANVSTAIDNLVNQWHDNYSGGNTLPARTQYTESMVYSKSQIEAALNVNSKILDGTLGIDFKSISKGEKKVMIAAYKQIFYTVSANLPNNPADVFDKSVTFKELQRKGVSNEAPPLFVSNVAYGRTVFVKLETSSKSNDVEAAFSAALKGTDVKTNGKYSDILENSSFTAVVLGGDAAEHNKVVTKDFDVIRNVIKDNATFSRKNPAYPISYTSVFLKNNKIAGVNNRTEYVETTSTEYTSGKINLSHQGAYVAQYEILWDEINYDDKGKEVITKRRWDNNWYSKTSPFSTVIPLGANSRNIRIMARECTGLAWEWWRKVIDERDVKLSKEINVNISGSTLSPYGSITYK

## murine neutralizing monoclonal antibody (nAb) against Streptolysin O, Abcam AB23501
  Kd: 1.12 nM
